Measurements from patent US9127040B2, “Regulation of sodium channels by PLUNC proteins” (The University of North Carolina at Chapel Hill, priority 2011, dated 2015).

Molecular target: T1, αβγENaC (Rattus norvegicus, UniProt P37089+P37090+P37091, S518C)
T1 construct: expressed in transfected cells; host or cells: Xenopus laevis oocytes (cRNA injection)
T1 sequence (P37089 1-698): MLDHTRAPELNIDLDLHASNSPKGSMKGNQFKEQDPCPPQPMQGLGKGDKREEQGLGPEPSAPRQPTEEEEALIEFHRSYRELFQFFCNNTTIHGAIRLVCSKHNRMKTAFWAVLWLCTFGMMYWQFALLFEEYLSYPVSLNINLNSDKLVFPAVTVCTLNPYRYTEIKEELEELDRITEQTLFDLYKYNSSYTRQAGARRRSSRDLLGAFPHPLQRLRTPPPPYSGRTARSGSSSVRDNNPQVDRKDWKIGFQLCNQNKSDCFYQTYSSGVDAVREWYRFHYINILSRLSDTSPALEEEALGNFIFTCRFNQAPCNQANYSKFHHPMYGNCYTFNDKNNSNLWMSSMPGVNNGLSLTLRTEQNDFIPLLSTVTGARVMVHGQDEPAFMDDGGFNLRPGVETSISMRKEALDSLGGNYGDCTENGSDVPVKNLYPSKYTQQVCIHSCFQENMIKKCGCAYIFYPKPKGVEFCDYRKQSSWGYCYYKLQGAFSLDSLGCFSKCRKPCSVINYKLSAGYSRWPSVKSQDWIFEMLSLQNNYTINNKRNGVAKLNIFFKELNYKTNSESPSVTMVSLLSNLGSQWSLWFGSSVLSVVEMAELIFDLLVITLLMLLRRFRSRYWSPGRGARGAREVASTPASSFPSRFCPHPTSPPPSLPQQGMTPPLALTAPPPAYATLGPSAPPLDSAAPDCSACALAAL
T1 sequence (P37090 1-638 S518C): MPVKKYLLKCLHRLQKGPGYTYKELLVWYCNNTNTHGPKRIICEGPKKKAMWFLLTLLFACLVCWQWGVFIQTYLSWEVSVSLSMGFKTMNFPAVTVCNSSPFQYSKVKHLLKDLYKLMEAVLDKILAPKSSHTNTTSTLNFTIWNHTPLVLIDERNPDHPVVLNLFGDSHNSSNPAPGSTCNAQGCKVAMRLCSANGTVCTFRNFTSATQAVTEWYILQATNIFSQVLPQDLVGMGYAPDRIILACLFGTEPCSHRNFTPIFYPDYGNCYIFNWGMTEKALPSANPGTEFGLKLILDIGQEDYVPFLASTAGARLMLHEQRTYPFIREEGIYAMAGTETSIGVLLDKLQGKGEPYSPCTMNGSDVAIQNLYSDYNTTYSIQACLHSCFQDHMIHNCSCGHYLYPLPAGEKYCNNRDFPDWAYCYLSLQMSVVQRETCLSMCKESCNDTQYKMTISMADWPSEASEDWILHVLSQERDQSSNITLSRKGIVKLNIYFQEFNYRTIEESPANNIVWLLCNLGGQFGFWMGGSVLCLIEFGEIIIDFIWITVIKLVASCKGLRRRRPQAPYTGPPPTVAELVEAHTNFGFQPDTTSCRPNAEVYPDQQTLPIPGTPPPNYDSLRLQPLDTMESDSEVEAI
T1 sequence (P37091 1-650): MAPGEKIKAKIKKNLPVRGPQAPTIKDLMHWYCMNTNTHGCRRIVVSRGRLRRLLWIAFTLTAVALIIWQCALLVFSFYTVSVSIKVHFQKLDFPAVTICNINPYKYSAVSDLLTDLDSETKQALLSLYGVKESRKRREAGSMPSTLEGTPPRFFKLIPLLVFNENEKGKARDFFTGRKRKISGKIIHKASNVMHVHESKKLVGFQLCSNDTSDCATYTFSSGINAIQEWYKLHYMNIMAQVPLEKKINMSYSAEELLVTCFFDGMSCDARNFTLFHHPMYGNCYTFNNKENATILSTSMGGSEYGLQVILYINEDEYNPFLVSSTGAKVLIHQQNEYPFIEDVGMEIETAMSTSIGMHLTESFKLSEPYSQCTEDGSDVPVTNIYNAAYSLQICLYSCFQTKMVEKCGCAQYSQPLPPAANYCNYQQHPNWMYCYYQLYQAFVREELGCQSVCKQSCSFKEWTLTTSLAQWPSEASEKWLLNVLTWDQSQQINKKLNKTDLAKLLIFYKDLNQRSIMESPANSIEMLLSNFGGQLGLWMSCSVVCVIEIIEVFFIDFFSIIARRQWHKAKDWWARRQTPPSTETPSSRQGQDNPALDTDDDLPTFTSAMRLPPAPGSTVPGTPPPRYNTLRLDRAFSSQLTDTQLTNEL
Assay: Amiloride-sensitive whole cell current, two electrode voltage clamp, Xenopus laevis oocytes expressing αβγENaC
Type: cell-based
Conditions: Po increased to 1.0 by MTSET; SPLUNC1 coexpressed

B1: SPLUNC1: human SPLUNC1 (SEQ ID NO:1), 256 amino acid secreted PLUNC family protein; rSPLUNC1 is the purified V5/6His-tagged recombinant form (protein, listed as Homo sapiens)
chain: MFQTGGLIVFYGLLAQTMAQFGGLPVPLDQTLPLNVNPALPLSPTGLAGSLTNALSNGLLSGGLLGILENLPLLDILKPGGGTSGGLLGGLLGKVTSVIPGLNNIIDIKVTDPQLLELGLVQSPDGHRLYVTIPLGIKLQVNTPLVGASLLRLAVKLDITAEILAVRDKQERIHLVLGDCTHSPGSLQISLLDGLGPLPIQGLLDSLTGILNKVLPELVQGNVCPLVNEVLRGLDITLVHDIVNMLIHGLQFVIKV
modifications: V5/6His tag in recombinant form
notes: rSPLUNC1 is the purified V5/6His-tagged recombinant form
- overall current of ENaC containing βS518C mutant after MTSET: still reduced
